T1: GST-Cdc25C, P30307
T1 chain: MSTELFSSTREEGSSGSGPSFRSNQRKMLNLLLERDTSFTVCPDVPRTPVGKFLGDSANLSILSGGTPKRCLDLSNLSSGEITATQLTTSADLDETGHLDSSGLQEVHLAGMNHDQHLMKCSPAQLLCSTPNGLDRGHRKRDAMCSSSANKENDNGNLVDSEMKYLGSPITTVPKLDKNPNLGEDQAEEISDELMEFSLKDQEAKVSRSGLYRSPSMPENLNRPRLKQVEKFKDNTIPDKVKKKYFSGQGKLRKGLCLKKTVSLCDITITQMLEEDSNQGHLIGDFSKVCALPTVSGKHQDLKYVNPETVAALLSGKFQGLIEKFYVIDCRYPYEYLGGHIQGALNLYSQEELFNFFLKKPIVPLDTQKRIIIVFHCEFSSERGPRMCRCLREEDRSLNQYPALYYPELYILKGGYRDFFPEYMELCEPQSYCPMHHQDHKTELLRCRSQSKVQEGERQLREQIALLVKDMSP

B1: 6his-Chk1 (protein)
chain: MAVPFVEDWDLVQTLGEGAYGEVQLAVNRVTEEAVAVKIVDMKRAVDCPENIKKEICINKMLNHENVVKFYGHRREGNIQYLFLEYCSGGELFDRIEPDIGMPEPDAQRFFHQLMAGVVYLHGIGITHRDIKPENLLLDERDNLKISDFGLATVFRYNNRERLLNKMCGTLPYVAPELLKRREFHAEPVDVWSCGIVLTAMLAGELPWDQPSDSCQEYSDWKEKKTYLNPWKKIDSAPLALLHKILVENPSARITIPDIKKDRWYNKPLKKGAKRPRVTSGGVSESPSGFSKHIQSNLDFSPVNSASSEENVKYSSSQPEPRTGLSLWDTSPSYIDKLVQGISFSQPTCPDHMLLNSQLLGTPGSSQNPWQRLVKRMTRFFTKLDADKSYQCLKETCEKLGYQWKKSCMNQVTISTTDRRNNKLIFKVNLLEMDDKILVDFRLSKGDGLEFKRHFLKIKGKLIDIVSSQKIWLPAT
B2: GST-Cdc25C (protein)
chain: T1 chain

Legend:
GST-Cdc25C, P30307 = target: T1, GST-Cdc25C, P30307

Chain of 6his-Cdc2, P06493 (P06493 whole entry, looked up): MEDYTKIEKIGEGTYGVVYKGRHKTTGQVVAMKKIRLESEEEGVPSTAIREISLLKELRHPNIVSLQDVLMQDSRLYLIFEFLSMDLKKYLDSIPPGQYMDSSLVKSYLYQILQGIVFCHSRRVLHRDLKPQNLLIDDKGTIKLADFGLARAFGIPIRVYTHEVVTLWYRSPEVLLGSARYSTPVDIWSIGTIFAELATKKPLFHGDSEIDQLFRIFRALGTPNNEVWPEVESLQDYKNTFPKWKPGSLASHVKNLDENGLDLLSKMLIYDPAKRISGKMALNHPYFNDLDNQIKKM

| Protein | GST-Cdc25 phosphatase activity (loss of the slower migrating phosphorylated forms of Cdc2 on gel) (GST-Cdc25C, P30307) | phosphorylation with gamma-32P ATP, SDS-PAGE and autoradiography (GST-Cdc25C, P30307) | Cdc2 dephosphorylation by gel-mobility analysis (6his-Cdc2, P06493) |
| --- | --- | --- | --- |
| B1 | Prior phosphorylation of GST-Cdc25 by 6his-Chk1 leads to a dose-dependent reduction in GST-Cdc25 activity | GST-Cdc25 was phosphorylated by 6his-Chk1 and by 6his-hCDS1 |  |
| B2 |  |  | GST-Cdc25 catalyses a reduction in the slower migrating phosphorylated forms of Cdc2 |

Source: patent US20030017160
